Source: US20250228943A1

Target: TGFβR2-IL18R redirector receptor
Assay: cell-based or functional assay

Chain of TGFβR2-IL18R redirector receptor (chain, as listed by the source): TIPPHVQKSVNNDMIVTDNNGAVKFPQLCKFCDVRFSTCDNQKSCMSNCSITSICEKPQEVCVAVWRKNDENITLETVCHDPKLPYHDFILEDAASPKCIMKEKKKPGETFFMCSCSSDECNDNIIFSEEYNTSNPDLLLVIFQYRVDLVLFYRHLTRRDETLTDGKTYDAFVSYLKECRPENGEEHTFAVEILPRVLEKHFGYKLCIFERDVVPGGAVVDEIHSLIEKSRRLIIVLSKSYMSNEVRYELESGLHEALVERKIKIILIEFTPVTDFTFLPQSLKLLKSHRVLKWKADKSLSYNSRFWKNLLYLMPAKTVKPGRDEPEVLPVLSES

TGFβ (ligand)
percent CD69^+CD25^+ effector cells after five rounds of co-culture with TGFβ (flow cytometry): 61.6%
